Assay results published in patent US20240166733A1 (VERSITECH, published 2024).

How the values were obtained:
Test in all cases: ELISA, FABP coated on plate, HRP anti-mouse IgG detection, OD450
[1] = target: T1, mouse E-FABP recombinant protein (mouse, UniProt Q05816 1-135, limits assumed)
T1 construct: also called mouse epidermal-FABP
T1 sequence (looked up): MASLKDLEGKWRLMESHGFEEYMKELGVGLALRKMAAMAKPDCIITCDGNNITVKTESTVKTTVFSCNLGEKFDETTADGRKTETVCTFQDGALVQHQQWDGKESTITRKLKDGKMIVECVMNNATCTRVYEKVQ
Description: (§1) The mouse or human A-FABP, E-FABP, and H-FABP recombinant proteins ([…]) were coated on 96-well plates overnight for ELISA binding assay to evaluate the reactivity and specificity of monoclonal antibodies with various FABPs. [0155] 100 μL of 6H2 (1 μg/mL) was added to the wells and incubated for 1 h at room temperature. The plates were then washed three times with phosphate-buffered saline (PBS), followed by incubation with 0.2 μg/mL HRP-conjugated-[…] H+L (Proteintech, SA00001-1, Japan) as the detection antibody at room temperature for 1 hour. After washing with PBS, TMB chromogen solution (Beyotime, P0209, China) was added for color development; 2M H₂SO₄ was added to the wells to stop the enzyme-induced color reactions; and the absorbance at 450 nm was measured with a microtiter plate reader.

[2] = target: T2, human H-FABP recombinant protein (human, UniProt P05413 1-133, limits assumed)
T2 construct: also called human heart-FABP
T2 sequence (P05413 whole entry): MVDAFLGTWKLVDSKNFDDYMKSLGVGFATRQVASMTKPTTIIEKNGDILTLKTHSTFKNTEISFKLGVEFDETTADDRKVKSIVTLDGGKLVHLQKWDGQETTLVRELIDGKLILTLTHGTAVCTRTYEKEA
Description: as §1

[3] = target: T3, human E-FABP recombinant protein (human, UniProt Q01469 1-135, limits assumed)
T3 construct: also called human epidermal-FABP
T3 sequence (Q01469 whole entry): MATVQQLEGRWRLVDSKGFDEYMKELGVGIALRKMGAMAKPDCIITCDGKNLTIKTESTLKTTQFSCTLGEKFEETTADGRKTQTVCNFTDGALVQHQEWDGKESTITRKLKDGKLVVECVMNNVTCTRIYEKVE
Description: as §1

[4] = target: T4, mouse H-FABP recombinant protein (mouse, UniProt P11404 1-133, limits assumed)
T4 construct: also called mouse heart-FABP
T4 sequence (P11404 whole entry): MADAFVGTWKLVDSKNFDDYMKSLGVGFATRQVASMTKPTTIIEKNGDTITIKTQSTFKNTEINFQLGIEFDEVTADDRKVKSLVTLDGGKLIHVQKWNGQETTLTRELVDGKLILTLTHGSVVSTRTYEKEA
Description: as §1

binding result [1]: no binding (tested: 6H2 at 1 µg/mL)
binding result [2]: no binding (tested: 6H2 at 1 µg/mL)
binding result [3]: no binding (tested: 6H2 at 1 µg/mL)
binding result [4]: no binding (tested: 6H2 at 1 µg/mL)
B1: A-FABP neutralizing monoclonal antibody 6H2 (antibody, V domains shown)
VH: VKLQESGPELVKPGASVKIPCKASGYTFTDYNMDWVRQSRGKSLEWIGDINPYNGDTIYNQNFKGKATLTVDKSSTTAYLELRSLTSEDTAVYYCASGYGFWGQGTTVTVSS
VL: DIVMTQAPLSLPVSLGAQASISCRSSQSLVYINGNTYLHWYLQKPGQSPKLLIYKVSNRFSGVPDRFSGSGSGTDFTLKISRVEAEDLGVYFCSQSTHVPYTFGGGTKLEIK
notes: also called 6H2 mAb
